Measurements from patent US20220363769A1 (SORRISO PHARMACEUTICALS, published 2022).
Changes are numbered by the printed parent chain. Names may count otherwise.

Experiments:
[1] = target: T1, recombinant human IL-7Rα-His6-Fc (human, UniProt P16871 21-239); assay: IL-7/IL-7Rα-His6-Fc ELISA; inhibition of IL-7 binding to IL-7R
T1 construct: also called hIL-7R; not shown: His6 tag; Fc (captured by anti-human IgG Fc)
T1 chain: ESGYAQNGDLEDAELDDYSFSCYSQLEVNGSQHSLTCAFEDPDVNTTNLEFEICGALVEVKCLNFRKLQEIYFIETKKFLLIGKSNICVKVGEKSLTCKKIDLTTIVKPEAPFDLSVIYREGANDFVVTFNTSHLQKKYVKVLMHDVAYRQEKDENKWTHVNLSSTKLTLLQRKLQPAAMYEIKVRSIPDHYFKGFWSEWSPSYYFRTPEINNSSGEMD

[2] = target: T1, recombinant human IL-7Rα-His6-Fc; assay: Biacore; IL-7Rα-His6-Fc captured by anti-human IgG Fc, ICVD flowed over
[3] = target: T1, recombinant human IL-7Rα-His6-Fc; assay: IL-7/IL-7R neutralisation ELISA; inhibition of IL-7 binding to IL-7R
cynomolgus monkey IL-7Rα = target: T2, cynomolgus monkey IL-7Rα (cynomolgus monkey, UniProt Q38IC7 21-239, limits assumed); assay: competition ELISA: ID-A40U premixed with serially diluted soluble IL-7R, then added to plate-coated human IL-7Rα-His6-Fc; bound ICVD detected
T2 construct: also called cynomolgus IL-7Rα
T2 sequence: T1 chain with N64S, E93G, T159M, K174N, A178E, S215P
Method: (§1) 96-well plates were coated with 0.5 μg/mL recombinant human IL-7Rα His₆-Fc +5 μg/mL BSA and then blocked. 0.5 nM of ICVD was mixed 1:1 with the test compounds of choice serially diluted in 1% BSA, then incubated for 30 minutes to allow binding before adding to the IL-7Rα coated plates. Following 2 hours incubation, bound ICVD was detected with 50 uL/well 1/20000 anti-FLAG-HRP Goat antibody (GeneTex, GTX21238), and the level of neutralisation of ICVD-IL-7Rα binding by the test compounds was determined.

murine IL-7Rα = target: T3, murine IL-7Rα (murine, UniProt P16872 21-239); assay: as above
T3 construct: also called mouse IL-7R
T3 sequence (looked up): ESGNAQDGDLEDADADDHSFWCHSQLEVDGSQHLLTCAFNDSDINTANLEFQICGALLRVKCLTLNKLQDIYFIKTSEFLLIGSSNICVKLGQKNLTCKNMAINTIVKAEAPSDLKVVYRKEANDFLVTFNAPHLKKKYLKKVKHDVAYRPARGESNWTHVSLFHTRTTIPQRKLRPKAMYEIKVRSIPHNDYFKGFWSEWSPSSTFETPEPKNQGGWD
Method: as §1

IL-9R = target: T4, IL-9R (human, UniProt Q01113 41-270, limits assumed); assay: competition ELISA: ID-A40U premixed with serially diluted soluble receptor, then added to plate-coated human IL-7Rα; bound ICVD detected [left panel]
T4 sequence (looked up): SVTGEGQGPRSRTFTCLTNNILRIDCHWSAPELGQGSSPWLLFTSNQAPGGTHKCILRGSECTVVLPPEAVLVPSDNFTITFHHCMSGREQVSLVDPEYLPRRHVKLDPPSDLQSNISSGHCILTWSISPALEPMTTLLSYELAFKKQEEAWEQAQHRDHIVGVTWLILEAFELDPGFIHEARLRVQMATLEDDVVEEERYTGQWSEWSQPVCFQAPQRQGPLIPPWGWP
Method: as §1

TNFR-2 = target: T5, TNFR-2 (human, UniProt P20333 23-257); assay: as above
T5 sequence (looked up): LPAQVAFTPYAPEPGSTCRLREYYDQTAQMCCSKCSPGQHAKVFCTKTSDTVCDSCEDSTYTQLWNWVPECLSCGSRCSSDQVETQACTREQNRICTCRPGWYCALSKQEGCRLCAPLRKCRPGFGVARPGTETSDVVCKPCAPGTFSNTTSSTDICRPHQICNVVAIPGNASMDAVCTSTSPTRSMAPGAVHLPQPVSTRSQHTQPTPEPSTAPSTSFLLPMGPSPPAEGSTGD
Method: as §1

IL-6R = target: T6, IL-6R (human, UniProt P08887 20-358, limits assumed); assay: as above
T6 sequence (looked up): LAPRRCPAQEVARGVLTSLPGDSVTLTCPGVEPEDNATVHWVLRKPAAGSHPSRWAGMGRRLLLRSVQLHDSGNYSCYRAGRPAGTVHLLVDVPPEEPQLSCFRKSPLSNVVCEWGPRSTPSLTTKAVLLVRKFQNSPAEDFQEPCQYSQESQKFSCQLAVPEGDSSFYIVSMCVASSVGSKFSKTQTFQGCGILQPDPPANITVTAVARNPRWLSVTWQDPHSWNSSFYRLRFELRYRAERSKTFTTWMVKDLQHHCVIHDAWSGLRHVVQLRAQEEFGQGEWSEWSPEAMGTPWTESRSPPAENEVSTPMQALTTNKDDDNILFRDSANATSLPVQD
Method: as §1

human IL-12Rβ1 = target: T7, human IL-12Rβ1 (human, UniProt P42701 24-545, limits assumed); assay: competition ELISA: ID-A40U premixed with serially diluted soluble receptor, then added to plate-coated human IL-7Rα; bound ICVD detected [right panel]
T7 construct: also called hIL-12Rβ1; IL-12Rα1 (as printed in the result sentence)
Method: as §1

IL-21R = IL-21R (human, UniProt Q9HBE5 20-232, limits assumed); assay: as above
Method: as §1

Chain of IL-21R (Q9HBE5 20-232 limits assumed): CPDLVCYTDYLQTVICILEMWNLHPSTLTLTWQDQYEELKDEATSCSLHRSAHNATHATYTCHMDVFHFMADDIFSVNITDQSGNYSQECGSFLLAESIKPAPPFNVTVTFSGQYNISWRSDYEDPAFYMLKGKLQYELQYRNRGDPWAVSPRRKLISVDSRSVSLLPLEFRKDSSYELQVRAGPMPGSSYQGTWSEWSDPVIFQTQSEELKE

B1: ID-A40U (VHH)
VHH: EVQLVESGGGLVQAGGSLRLSCESSISTFSSDAMGWFRQAPGKEREFLAAIGWSGAVTHYSDSVKGRFTISRDNAKNTVYLQMNSLRAEDTGRYYCAEDYDTDVWQYWGQGTQVTVSS
notes: V7R-2E9 with Q65K, K87R, S88A; produced in E. coli; also called A40U-F/H; not shown: Flag-His6 tag
[1]
  EC50: 544 pM
[2]
  Kd: 78 pM
[3]
  EC50: 544 pM
Cynomolgus monkey IL-7Rα
  binding result: binds
Murine IL-7Rα
  binding result: no binding (tested: 100 ng/mL)
IL-9R
  binding result: no binding (tested: 100 ng/mL)
TNFR-2
  binding result: no binding (tested: 100 ng/mL)
IL-6R
  binding result: no binding (tested: 100 ng/mL)
Human IL-12Rβ1
  binding result: no binding (tested: 100 ng/mL)
IL-21R
  binding result: no binding (tested: 100 ng/mL)
